Results taken from patent publication US20250042992A1 (University of California, published 2025).
Each block holds one binder with its values, some of them ahead of it.

What was measured:
[1] = molecular target: human DLK1 endogenously expressed on COR-L279 small cell lung carcinoma cells (human) (UniProt P80370); assay: KinExA on cells, row CORL-279 cells(adherent)
[2] = molecular target: T1, mouse DLK1 fused to mGFP, overexpressed on HEK293T cells (mouse, UniProt Q09163 24-385); assay: KinExA on cells, row HEK293T Mouse DLK1mGFP mass
T1 construct: not shown: mGFP fluorescent protein fused to DLK1
T1 sequence: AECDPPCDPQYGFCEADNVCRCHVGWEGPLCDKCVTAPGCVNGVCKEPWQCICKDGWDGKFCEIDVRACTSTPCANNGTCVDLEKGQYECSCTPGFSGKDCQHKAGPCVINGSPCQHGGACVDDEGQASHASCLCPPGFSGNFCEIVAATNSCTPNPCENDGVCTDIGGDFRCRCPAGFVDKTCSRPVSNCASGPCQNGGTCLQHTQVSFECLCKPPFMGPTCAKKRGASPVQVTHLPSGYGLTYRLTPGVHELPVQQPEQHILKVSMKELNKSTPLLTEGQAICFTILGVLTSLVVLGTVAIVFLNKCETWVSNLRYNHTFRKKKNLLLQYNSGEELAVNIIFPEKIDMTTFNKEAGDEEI

[3] = molecular target: T2, rat DLK1 fused to mGFP, overexpressed on HEK293T cells (rat, UniProt O70534 24-383); assay: KinExA on cells, row HEK293T Rat DLK1mGFP mass pop
T2 construct: whole, on cells; not shown: mGFP fluorescent protein fused to DLK1
T2 sequence (looked up): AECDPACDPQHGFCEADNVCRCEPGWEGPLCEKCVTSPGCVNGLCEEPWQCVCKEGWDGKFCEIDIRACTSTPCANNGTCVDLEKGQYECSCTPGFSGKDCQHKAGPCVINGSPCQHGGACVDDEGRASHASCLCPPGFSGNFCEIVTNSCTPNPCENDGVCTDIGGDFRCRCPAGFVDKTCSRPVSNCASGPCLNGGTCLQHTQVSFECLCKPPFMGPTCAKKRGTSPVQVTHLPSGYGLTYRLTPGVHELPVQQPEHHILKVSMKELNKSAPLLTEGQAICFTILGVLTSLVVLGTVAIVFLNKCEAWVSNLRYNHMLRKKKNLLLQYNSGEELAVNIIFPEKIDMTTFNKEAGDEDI

[4] = molecular target: human DLK1 endogenously expressed on COR-L279 small cell lung carcinoma cells (human) (UniProt P80370); assay: flow cytometry, antibody at 20µg/ml, row CORL-279 (SCLC, DLK+); row M202 of the same block: 5,208.0
[5] = molecular target: T2, rat DLK1 fused to mGFP, overexpressed …; assay: KinExA on HEK293T DLK1mGFP Rat mass pop cells detached by Versene; Error% 3.17; 95% CI 1.82nM - 13.53nM; equilibrium curves 400pM, 50nM
[6] = molecular target: T2, rat DLK1 fused to mGFP, overexpressed …; assay: flow cytometry, row HEK293T Rat DLK1mGFP mass pop
[7] = molecular target: either the long or short form of the human DLK1 protein (DLK1 ECD-mFc long form or short form, ELISA coat); assay: ELISA, plates coated with DLK1 ECD-mFc long form or short form, anti-human IgG Fc-HRP detection
[8] = molecular target: T3, DLK1 ECD-mFc long form (human DLK1-FL, isoform 1) (human, UniProt P80370 24-303); assay: ELISA, plate coated with long form of DLK1 ECD-mFc (isoform 1), anti-human IgG Fc-HRP, OD450nm
T3 construct: also called long form of the human DLK1 protein (ELISA coat); not shown: mFc (monomeric immunoglobulin Fc domain)
T3 sequence: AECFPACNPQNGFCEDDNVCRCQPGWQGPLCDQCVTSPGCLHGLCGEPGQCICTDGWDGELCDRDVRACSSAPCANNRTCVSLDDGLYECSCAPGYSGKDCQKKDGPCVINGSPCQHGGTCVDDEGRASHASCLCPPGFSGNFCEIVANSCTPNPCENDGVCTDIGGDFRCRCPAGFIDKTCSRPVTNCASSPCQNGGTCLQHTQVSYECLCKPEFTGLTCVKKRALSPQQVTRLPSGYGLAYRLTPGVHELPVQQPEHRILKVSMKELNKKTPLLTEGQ
Protocol: (§1) Plates were incubated with DLK1 Abs serially diluted 2-fold starting from 400 ng/ml in 5% BSA/PBS at RT for 1.5 hrs. Mouse anti-human IgG Fc secondary antibody conjugated to HRP (Novus catalog number: NBP1-78623H) at 1:3000 dilution was applied to each well at 50 μl/well and further incubated at RT for 1 hr. The ELISA was developed first with Thermo Scientific Pierce 1-Step™ Ultra TMB-ELISA substrate solution and then with addition of sulfuric acid stop solution. The ELISA plate was read on a plate reader at 450 nm.

[9] = molecular target: T4, DLK1 ECD-mFc short form (human DLK1-MB, isoform 2) (human, UniProt P80370 24-228); assay: ELISA, plate coated with short form of DLK1 ECD-mFc (isoform 2), anti-human IgG Fc-HRP, OD450nm
T4 construct: also called short form of the human DLK1 protein (ELISA coat); not shown: mFc (monomeric immunoglobulin Fc domain)
T4 sequence: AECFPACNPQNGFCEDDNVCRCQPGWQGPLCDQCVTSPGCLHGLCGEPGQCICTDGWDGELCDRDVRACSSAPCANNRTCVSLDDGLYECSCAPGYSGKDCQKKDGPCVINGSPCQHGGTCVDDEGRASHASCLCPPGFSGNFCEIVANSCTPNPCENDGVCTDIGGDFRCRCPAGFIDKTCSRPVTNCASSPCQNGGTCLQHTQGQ
Protocol: as §1

- Kd [1]: 8.2 nM
- Kd [2]: 13 nM
- Kd [3]: 5.96 nM
- Antibody Binding Activity by Flow Cytometry (20µg/ml) [4]: 186000
- Kd [5]: 5.96 nM
B1: humanized anti-DLK1 antibody 04-0547-h2 (IgG1) (antibody, V domains shown)
VH: EVQLVESGGGLVQPGGSLRLSCAASGFSISDYYMAWVRQAPGKGLEWVANINYDGTNTYYADSVKGRFTISRDNSKNTLYLQMNSLRAEDTAVYYCVRSYYYYGMEYWGQGTTVTVSS
VL: DIQMTQSPSSLSASVGDRVTITCRASHDVSTAVAWYQQKPGKAPKLLIYSASYRYTGVPSRFSGSGSGTDFTLTISSLQPEDFATYYCQQHYRIPLTFGQGTKLEIK
notes: human kappa (P01834) and human IgG1 (P01857) constant regions

- binding result [6]: no binding (tested: 20µg/ml)
- EC50 [7]: 0.81 to 0.87 nM
- EC50 [8]: 0.87 nM
- EC50 [9]: 0.81 nM
B2: humanized anti-DLK1 antibody 04-0561-F1 (IgG1) (antibody, V domains shown)
VH: QVQLQESGPGLVKPSETLSLTCTVSGFSLSIYSVHWVRQPPGKGLEWIGLIWGGGSTDYNPSLKSRVTISKDTSKNQVSLKLSSVTAADTAVYYCARKEGNYLWFAYWGQGTLVTVSS
VL: DIVMTQSPDSLAVSLGERVTMNCKSSQSLLQSSNQKNYLAWYQQKPGQPPKLLVYFASTRESGVPDRFSGSGSGTDFTLTISSVQAEDVAVYYCQQHYSIPLTFGQGTKLEIKR
